The source of these data is patent US20140271458A1 (AbbVie / Abbott, published 2014).

In test [1] the target is T1, Recombinant Human IL-17 (human, UniProt Q16552 20-155, limits assumed).
T1 sequence (looked up): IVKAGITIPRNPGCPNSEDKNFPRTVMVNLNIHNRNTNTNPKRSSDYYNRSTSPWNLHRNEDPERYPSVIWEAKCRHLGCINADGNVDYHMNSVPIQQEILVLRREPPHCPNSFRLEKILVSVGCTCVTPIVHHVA
Briefly: cell-based or functional assay.

For test [2], the target named is T1, Recombinant Human IL-17. Description: SPR, Biacore T200, DVD-Ig captured, antigen 0.8-100 nM, 25 C. The protocol: (§1) The BIACORE assay (GE, Healthcare Piscataway, N.J.) determined the affinity of antibodies or DVD-Ig proteins with kinetic measurements of on-rate and off-rate constants. Binding of antibodies or DVD-Ig proteins to a target antigen (for example, a purified recombinant target antigen) was determined by surface plasmon resonance-based measurements with a Biacore T200 using running HBS-EP+buffer from GE Healthcare at 25° C. AN chemicals were obtained from GE Healthcare unless otherwise described. For example, approximately 5000 RU of goat anti-mouse IgG, (Fcγ), fragment specific polyclonal antibody (Pierce Biotechnology Inc, Rockford, Ill.) diluted in 10 mM sodium acetate (pH 4.5) was directly immobilized across a CM5 research grade biosensor chip using a standard amine coupling kit according to manufacturer's instructions. Unreacted moieties on the biosensor surface were blocked with ethanolamine. Modified carboxymethyl dextran surface in flowcell 1 was used as a reference surface. Rate constants were derived by making kinetic binding measurements at different antigen concentrations ranging from 0.8-100 nM. Binding was recorded as a function of time and kinetic rate constants were calculated. In this assay, association rate was evaluated for 5 minutes and dissociation was monitored for 10 minutes. For kinetic screening analysis, rate equations derived from the 1:1 binding model were fitted simultaneously to association and dissociation phases of all injections (using global fit analysis with Rmax fit locally to account for capture variations) with the use of Biaevaluation software. Purified antibodies or DVD-Ig proteins were diluted in HEPES-buffered saline for capture across goat anti-mouse IgG specific reaction surfaces. Antibodies or DVD-Ig proteins to be captured as a ligand were injected over reaction matrices at a flow rate of 5 μl/minute. The association and dissociation rate constants, kₒₙ (M⁻¹s⁻¹) and koff (s⁻¹) were determined under a continuous flow rate of 50 μl/minute. Rate constants were derived by making kinetic binding measurements at different antigen concentrations ranging from 0.8-100 nM. Binding was recorded as a function of time and kinetic rate constants were calculated. In this assay, association rate was evaluated for 5 minutes and dissociation was monitored for 10 minutes.

The target in test [3] is T2, Recombinant Human IL-1b (human, UniProt P01584 117-269).
T2 construct: Bought reagent used in the Biacore analyses; also called IL-1β
The description is as above. The protocol:
as §1

Test [4] addresses T2, Recombinant Human IL-1b. Briefly: cell-based or functional assay.
The target of test [5] is T1, Recombinant Human IL-17. Description: SPR, Biacore T200, antibody captured, antigen 0.8-100 nM, 25 C. The protocol:
as §1

Test [6] addresses T2, Recombinant Human IL-1b. The description is as above. The protocol:
as §1

Substitutions are numbered along the chain they refer to. Some results are limits rather than exact numbers.

B1: DVD3415 (bispecific antibody, human IgG1)
heavy: EVQLVESGGGVVQPGRSLRLSCSASGFIFSRYDMSWVRQAPGKGLEWVAYISHGGAGTYYPDSVKGRFTISRDNSKNTLFLQMDSLRPEDTGVYFCARGGVTKGYFDVWGQGTPVTVSSGGGGSGGGGSEVQLVQSGAEVKKPGSSVKVSCKASGGSFGGYGIGWVRQAPGQGLEWMGGITPFFGFADYAQKFQGRVTITADESTTTAYMELSGLTSDDTAVYYCARDPNEFWGGYYSTHDFDSWGQGTTVTVSSASTKGPSVFPLAPSSKSTSGGTAALGCLVKDYFPEPVTVSWNSGALTSGVHTFPAVLQSSGLYSLSSVVTVPSSSLGTQTYICNVNHKPSNTKVDKKVEPKSCDKTHTCPPCPAPEAAGGPSVFLPPPKPKDTLMISRTPEVTCVVVDVSHEDPEVKFNWYVDGVEVHNAKTKPREEQYNSTYRVVSVLTVLHQDWLNGKEYKCKVSNKALPAPIEKTISKAKGQPREPQVYTLPPSREEMTKNQVSLTCLVKGFYPSDIAVEWESNGQPENNYKTTPPVLDSDGSFFLYSKLTVDKSRWQQGNVFSCSVMHEALHNHYTQKSLSLSPGK
light: DIQMTQSPSSLSASVGDRVTITCRASGNIHNYLTWYQQTPGKAPKLLIYNAKTLADGVPSRFSGSGSGTDYTFTISSLQPEDIATYYCQHFWSIPYTFGQGTKLQITRGGSGGGGSGEIVLTQSPDFQSVTPKEKVTITCRASQDIGSELHWYQQKPDQPPKLLIKYASHSTSGVPSRFSGSGSGTDFTLTINGLEAEDAGTYYCHQTDSLPYTFGPGTKVDIKRTVAAPSVFIFPPSDEQLKSGTASVVCLLNNFYPREAKVQWKVDNALQSGNSQESVTEQDSKDSTYSLSSTLTLSKADYEKHKVYACEVTHQGLSSPVTKSFNRGEC
notes: human kappa; also called DVD3415H; DVD3415L
Turning to B1, the “C-Terminal VD IL17 Neutralization Assay (IC50 nM)” value with Recombinant Human IL-17 [1] came to 0.091 nM. Moreover, in the test with Recombinant Human IL-17 [2], the Kd is under 0.0048 nM, the koff is under 1e-06 s⁻¹ and the kon was 210000 M⁻¹ s⁻¹. Besides, in the test with Recombinant Human IL-1b [3], the Kd was 0.051 nM, the off-rate (koff) was 3.8e-05 s⁻¹ and the on-rate (kon) turned out to be 740000 M⁻¹ s⁻¹. Also, the “N-Terminal VD IL-1β Neutralization Assay (IC50 nM)” value with Recombinant Human IL-1b [4] came to 0.027 nM.

B2: DVD3418 (bispecific antibody, human IgG1)
heavy: B1 heavy with P88A, G92A, F95Y, T102Y
light: B1 light
notes: human kappa; also called DVD3418H; DVD3418L
With B2, the “C-Terminal VD IL17 Neutralization Assay (IC50 nM)” value with Recombinant Human IL-17 [1] is 0.068 nM. Besides, in the test with Recombinant Human IL-17 [2], the Kd is under 0.0048 nM, the koff was under 1e-06 s⁻¹ and the kon was found to be 210000 M⁻¹ s⁻¹. Moreover, in the test with Recombinant Human IL-1b [3], the equilibrium dissociation constant (Kd) worked out at 0.034 nM, the koff turned out to be 1.8e-05 s⁻¹ and the kon was found to be 540000 M⁻¹ s⁻¹. For the same molecule, the “N-Terminal VD IL-1β Neutralization Assay (IC50 nM)” value with Recombinant Human IL-1b [4] came to 0.018 nM.

B3: AB420 (antibody, V domains shown)
VH: EVQLVQSGAEVKKPGSSVKVSCKASGGSFGGYGIGWVRQAPGQGLEWMGGITPFFGFADYAQKFQGRVTITADESTTTAYMELSGLTSDDTAVYYCARDPNEFWGGYYSTHDFDSWGQGTTVTVSS
VL: EIVLTQSPDFQSVTPKEKVTITCRASQDIGSELHWYQQKPDQPPKLLIKYASHSTSGVPSRFSGSGSGTDFTLTINGLEAEDAGTYYCHQTDSLPYTFGPGTKVDIKR
B3: in the test with Recombinant Human IL-17 [1], the “C-Terminal VD IL17 Neutralization Assay (IC50 nM)” value stood at 0.048 nM.

B4: AB461 (antibody, V domains shown)
VH: EVQLVQSGAEVKKPGESVKISCKASGGSFRSYGISWVRQAPGQGLEWMGGITHFFGITDYAQKFQGRVTITADESTTTAYMELSGLTSDDTAVYYCAREPNDFWGGYYDTHDFDSWGQGTTVTVSS
VL: B3 VL with D28N, P43S, T55I, G84A, T91S, S93T, Y96H, P100Q
notes: Parent anti-IL-17 antibody; also called AB461VH
As to B4, in the test with Recombinant Human IL-17 [5], the dissociation constant (Kd) worked out at 0.00086 nM, the off-rate constant (koff) was determined as 5.3e-06 s⁻¹ and the kon is 6.2e+06 M⁻¹ s⁻¹.

B5: AB273 (antibody, V domains shown)
VH: EVQLVQSGAEVKKPGSSVKVSCKASGYTFTDYEIHWVRQAPGQGLEWMGVNDPESGGTFYNQKFDGRVTLTADESTSTAYMELSSLRSEDTAVYYCTRYSKWDSFDGMDYWGQGTTVTVSS
VL: DIQMTQSPSSLSASVGDRVTITCRASSGIISYIDWFQQKPGKAPKRLIYATFDLASGVPSRFSGSGSGTDYTLTISSLQPEDFATYYCRQVGSYPETFGQGTKLEIKR
notes: Parent anti-IL-17 antibody; also called AB273VH
Regarding B5, in the test with Recombinant Human IL-17 [5], the Kd is 0.0046 nM, the koff is 1.3e-05 s⁻¹ and the kon stood at 2.7e+06 M⁻¹ s⁻¹. Moreover, the “C-Terminal VD IL17 Neutralization Assay (IC50 nM)” value with Recombinant Human IL-17 [1] stood at 0.031 nM.

B6: AB270 (antibody, V domains shown)
VH: EVQLQESGPGLVKPSETLSLTCTVSGFSLSDYGVSWIRQPPGKGLEWLGLIWGGGDTYYNSPLKSRLTISKDNSKSQVSLKLSSVTAADTAVYYCAKQRTLWGYDLYGMDYWGQGTLVTVSS
VL: DTQVTQSPSSLSASVGDRVTITCITSTDIDVDMNWYQQKPGKPPKLLISQGNTLRPGVPSRFSSSGSGTDFTFTISSLQPEDFATYYCLQSDNLPLTFGQGTKLEIKR
notes: Parent anti-IL-1β antibody; also called AB270VH
As for B6, in the test with Recombinant Human IL-1b [6], the Kd amounted to 0.08 nM, the koff came out at 0.00053 s⁻¹ and the kon came to 6.6e+06 M⁻¹ s⁻¹. In addition, in the test with Recombinant Human IL-1b [4], the “N-Terminal VD IL-1β Neutralization Assay (IC50 nM)” value was determined as 0.239 nM.

B7: AB272 (antibody, V domains shown)
VH: EVQLVESGGGLVQPGGSLRLSCAVSGFTLSDYGVSWIRQAPGKGLEWLGLIWGGGDTYYNSPLKSRLTISKDNSKSTVYLQMNSLRAEDTAVYYCAKQRTLWGYDLYGMDYWGQGTLVTVSS
VL: B6 VL with D1E, Q3T
notes: Parent anti-IL-1β antibody; also called AB272VH
As for B7, in the test with Recombinant Human IL-1b [6], the Kd came to 0.14 nM, the koff turned out to be 0.00056 s⁻¹ and the kon was determined as 4e+06 M⁻¹ s⁻¹. Moreover, in the test with Recombinant Human IL-1b [4], the “N-Terminal VD IL-1β Neutralization Assay (IC50 nM)” value turned out to be 0.424 nM.

B8: AB271 (antibody, V domains shown)
VH: B6 VH
VL: DTVVTQSPAFLSVTPGEKVTITCITSTDIDVDMNWYQQKPDQPPKLLISQGNTLRPGVPSRFSSSGSGTDFTFTISSLEAEDAATYYCLQSDNLPLTFGQGTKLEIKR
notes: Parent anti-IL-1β antibody; also called AB271VH
B8: in the test with Recombinant Human IL-1b [6], the Kd was 0.11 nM, the koff was determined as 0.00051 s⁻¹ and the kon came to 4.6e+06 M⁻¹ s⁻¹. Besides, the “N-Terminal VD IL-1β Neutralization Assay (IC50 nM)” value with Recombinant Human IL-1b [4] was 0.301 nM.
